Measurements from patent US20190033318A1.

B1: cyclo-CRVIIF (SEQ ID NO 4) (peptide)
peptide: CRVIIF
modifications: cyclic peptide (cyclo-, first amino acid joined to the last)
B2: cyclo-… (SEQ ID NO 5) (peptide)
peptide: SGWEMIQRR
modifications: cyclic peptide (first amino acid joined to the last)

Tests used:
Test in all cases: thermal shift assay, 1 mM peptide
[1] = biological target: GST-1β (GST-tagged HIF-1β 1-474, isoform 2, Δ77-91) (UniProt P27540)
[2] = biological target: 1α PASB (HIF-1α PASB domain, 238-349) (UniProt Q16665)
[3] = biological target: 2α PASB (HIF-2α PASB domain, 240-350) (UniProt Q99814)
[4] = biological target: Trx-2α (thioredoxin-tagged HIF-2α 1-360, bHLH-PASA-PASB) (UniProt Q99814)
Chain of Trx-2α (thioredoxin-tagged HIF-2α 1-360, bHLH-PASA-PASB) (Q99814 1-360): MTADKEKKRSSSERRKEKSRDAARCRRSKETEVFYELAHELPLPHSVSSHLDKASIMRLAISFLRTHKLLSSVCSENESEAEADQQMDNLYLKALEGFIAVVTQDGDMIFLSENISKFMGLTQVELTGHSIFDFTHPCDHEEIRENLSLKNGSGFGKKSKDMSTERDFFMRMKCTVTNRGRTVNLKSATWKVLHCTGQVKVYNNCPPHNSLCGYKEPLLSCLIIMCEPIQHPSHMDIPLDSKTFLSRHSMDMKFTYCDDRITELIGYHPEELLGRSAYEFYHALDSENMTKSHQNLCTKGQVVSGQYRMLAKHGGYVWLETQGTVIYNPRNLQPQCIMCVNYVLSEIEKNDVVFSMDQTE

Chain of 2α PASB (HIF-2α PASB domain, 240-350) (Q99814 240-350): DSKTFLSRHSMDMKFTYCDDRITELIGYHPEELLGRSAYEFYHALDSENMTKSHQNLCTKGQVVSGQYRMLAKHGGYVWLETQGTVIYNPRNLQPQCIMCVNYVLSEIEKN
Chain of 1α PASB (HIF-1α PASB domain, 238-349) (Q16665 238-349): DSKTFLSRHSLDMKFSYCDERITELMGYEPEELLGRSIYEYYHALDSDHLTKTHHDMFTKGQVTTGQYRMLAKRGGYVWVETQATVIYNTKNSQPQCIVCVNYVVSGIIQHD

Row | Binder | ΔTm [1] | ΔTm [2] | ΔTm [3] | ΔTm [4]
1 | B1 | -0.5 ° C. | – | – | –
2 | B2 | – | -0.5 ° C. | -2.5 ° C. | -2 ° C.
